According to patent publication US20230125788, “TDP-43 MODULATING AGENTS AND USES THEREOF” (Washington University, published 2023):

T1: TDP-43 RRM1-2 (UniProt Q13148 Q13148:102-269)
T1 chain: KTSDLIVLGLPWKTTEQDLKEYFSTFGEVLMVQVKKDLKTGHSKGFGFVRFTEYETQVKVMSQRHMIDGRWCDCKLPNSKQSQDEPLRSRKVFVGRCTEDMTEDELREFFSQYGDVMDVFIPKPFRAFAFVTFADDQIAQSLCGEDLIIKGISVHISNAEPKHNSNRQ

T2: TDP-43 deltaN (UniProt Q13148 Q13148:102-414)
T2 chain: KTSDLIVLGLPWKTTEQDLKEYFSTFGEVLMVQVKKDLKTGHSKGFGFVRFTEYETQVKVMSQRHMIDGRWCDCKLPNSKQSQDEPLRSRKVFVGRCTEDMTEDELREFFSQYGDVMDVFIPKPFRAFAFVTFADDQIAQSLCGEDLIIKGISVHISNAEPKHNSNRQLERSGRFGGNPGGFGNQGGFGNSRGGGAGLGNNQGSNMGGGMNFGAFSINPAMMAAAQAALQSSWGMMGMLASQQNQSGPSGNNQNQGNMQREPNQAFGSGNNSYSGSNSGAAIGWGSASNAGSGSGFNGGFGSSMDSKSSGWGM


Assays:
TDP-43 WT [1] = target: T3, TDP-43 WT (UniProt Q13148 Q13148:1-414); assay: FP; higher Kd than modified; values only in figure; conditions: tags: N-terminal His6-SUMO (Smt3), E. coli BL21(DE3), pET28b(+)-SUMO-TDP43
TDP-43 WT [2] = target: T3, TDP-43 WT; assay: FP; apparent; 300 mM NaCl, 10 mM Tris pH 8.0; conditions: tags: N-terminal His6-SUMO (Smt3), E. coli BL21(DE3), pET28b(+)-SUMO-TDP43; label: FITC
Procedure: Each point is the average of >3 technical and 3 biological replicates, respectively (SEM).
Recombinant TDP-43 wild-type (WT) and constructs previously purified were serially diluted in a 1:2 ratio (from 75 to 0 nM) into a 300 mM of NaCl, 10 mM of Tris (pH 8.0), 5% glycerol, 5% sucrose, 1 mM of TCEP buffer solution. A(GU)₆ RNA labeled with fluorescein isothiocyanate (FITC) from IDT was used at a final concentration of 0.6, 1.3, 2.5, and 5 nM. […] The anisotropy measurements were performed in a Biotek SYNERGY Neo2 (BioSPX) plate reader with excitation and emission wavelengths of 480 and 520 nm, respectively. To assess the binding curves, the data were fitted as previously described. Data analysis was performed using GraphPad Prism 5.

TDP-43 RRM1-2 = target: T1, TDP-43 RRM1-2; assay: FP; apparent; 300 mM NaCl; conditions: tags: N-terminal His6-SUMO; label: FITC
TDP-43 deltaN = target: T2, TDP-43 deltaN; assay: FP; apparent; 300 mM NaCl; conditions: tags: N-terminal His6-SUMO; label: FITC
TDP-43 WT [3] = target: T3, TDP-43 WT; assay: FP; Kd dramatically lower than unmodified; values only in figure; conditions: tags: N-terminal His6-SUMO (Smt3), E. coli BL21(DE3), pET28b(+)-SUMO-TDP43
TDP-43 WT [4] = target: T3, TDP-43 WT; assay: EMSA; at least three TDP-43 bound per oligo; 150 mM NaCl, 2 mM MgCl2, Tris pH 8; conditions: tags: N-terminal His6-SUMO (Smt3), E. coli BL21(DE3), pET28b(+)-SUMO-TDP43; label: 5' 700 nm IR dye

T3 sequence (Q13148 whole entry, one chain of several): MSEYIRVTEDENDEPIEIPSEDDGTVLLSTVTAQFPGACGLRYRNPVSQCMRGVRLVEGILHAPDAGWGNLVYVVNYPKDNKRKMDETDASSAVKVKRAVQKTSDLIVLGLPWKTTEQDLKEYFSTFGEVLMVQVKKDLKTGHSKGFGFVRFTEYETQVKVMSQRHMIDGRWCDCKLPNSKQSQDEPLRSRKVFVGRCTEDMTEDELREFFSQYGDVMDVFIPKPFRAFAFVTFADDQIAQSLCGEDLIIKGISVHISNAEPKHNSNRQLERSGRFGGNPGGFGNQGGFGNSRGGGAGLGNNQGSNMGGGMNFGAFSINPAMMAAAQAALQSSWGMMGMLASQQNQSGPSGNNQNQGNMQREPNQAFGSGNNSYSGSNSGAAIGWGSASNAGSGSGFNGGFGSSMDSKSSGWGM

| Binder | binding result (TDP-43 WT [1]) | binding result (TDP-43 WT [3]) | other results |
| --- | --- | --- | --- |
| AGUGUGUGUGUGU (ssRNA) [A(GU)6 unmodified] | binds | – | – |
| AGUGUGUGUGUGU (ssRNA, 2'-OMe and PS unless otherwise noted (general statement)) [A(GU)6-FITC] | – | – | Kd (TDP-43 WT [2]): 0.8 nM; Kd (TDP-43 RRM1-2): 0.8 nM; Kd (TDP-43 deltaN): 0.7 nM |
| GAGAGAGCGCGTGCAGAGACTTGGTGGTGCATAA (XNA, 2'-OMe all; PS all linkages) [CLIP34 2OMe] | – | binds | – |
| GAGAGAGCGCGUGCAGAGACUUGGUGGUGCAUAA (ssRNA) [CLIP34 IR700] | – | – | binding result (TDP-43 WT [4]): binds |
| GAGAGAGCGCGUGCAGAGACUUGGUGGUGCAUAA (ssRNA) [CLIP34 unmodified] | binds | – | – |
| AGTGTGTGTGTGT (XNA, 2'-OMe all; PS all linkages) [A(GU)6 2OMe] | – | binds | – |
